Test results as given in US9573987B2 (priority 2011, dated 2017).
Values joined by “and” are separate entries in the source; they are usually repeats but may differ in a detail not shown here. Equal values may be shown once. Read-outs that look alike come from different tables or passages of the source. Each block holds one molecule with its values, some of them ahead of it. Where a SMILES comes first, the peptide text is derived from it. Bridges are numbered along the chain shown (N, C = ends). Where no end group is shown, it is not given here. Side-chain parts run from the residue outwards. [ ]: non-standard residue; d: D form. Phe(4-NH2) = Nc1ccc(C[C@H](N)C(=O)O)cc1; Aib = CC(C)(N)C(=O)O; Sar = CNCC(=O)O

Columns and labels:
IGF-1 receptor [1] = target: T1, IGF-1 receptor (Homo sapiens, UniProt P08069); assay: IGF-1 receptor binding assay (competition, scintillation proximity); parameters: expressed in transfected cells; plasma membrane fragments; details: for EC50: Table 15, read-out: Receptor Binding IGR-1R EC50
insulin receptor [2] = target: T2, insulin receptor (Homo sapiens, UniProt P06213); assay: Insulin receptor binding assay (competition, scintillation proximity); parameters: expressed in transfected cells; plasma membrane fragments
IGF-1 receptor [3] = target: T1, IGF-1 receptor; assay: IGF-1 receptor phosphorylation assay, receptor transfected HEK293 cells; format: cell-based; parameters: expressed in transfected cells; host or cells: HEK293; details: for EC50: Table 15, read-out: Receptor Phosphorylation IGF-IR EC50
Experimental: (§1) Color development was stopped 5 min later by adding 0.05 ml 1 N HCl. Absorbance at 450 nm was measured on Titertek Multiscan MCC340 (ThermoFisher, Pittsburgh, Pa.).

insulin receptor [4] = target: T2, insulin receptor; assay: Insulin receptor phosphorylation assay, receptor transfected HEK293 cells; format: cell-based; parameters: expressed in transfected cells; host or cells: HEK293; details: Table 10
Experimental: as §1

IR-B = IR-B (Homo sapiens, UniProt P06213); assay: In vitro activity of pegylated analogs relative to native insulin at IR-B
IR-A = IR-A (Homo sapiens, UniProt P06213); assay: In vitro activity of pegylated analogs relative to native insulin at IR-A
[5] = system: human mammary epithelial cells (HMEC); assay: Human mammary epithelial cells proliferation ([14C]-thymidine); format: cell-based
Experimental: The plate was incubated 4 h at 37° C., 5% CO2 and 90% humidity.

blood glucose = assay: Comparative insulin tolerance test / insulin dose titration in mice
[6] = target: T3, insulin subtype B receptor (IR-B) (Homo sapiens, UniProt P06213); assay: Insulin subtype B receptor binding (competition binding); parameters: expressed in transfected cells; plasma membrane fragments; details: Table 15
[7] = target: T4, insulin subtype A receptor (IR-A) (Homo sapiens, UniProt P06213); assay: Insulin subtype A receptor phosphorylation, receptor transfected HEK293 cells; format: cell-based
T4 construct: expressed in transfected cells; host or cells: HEK293
Experimental: (§2) Color development was stopped 5 min later by adding 0.05 ml 1 N HCl. Absorbance at 450 nm was measured on Titertek Multiscan MCC340 (ThermoFisher, Pittsburgh, Pa.). […]

[8] = target: T3, insulin subtype B receptor (IR-B); assay: Insulin subtype B receptor phosphorylation, receptor transfected HEK293 cells; format: cell-based; parameters: expressed in transfected cells; host or cells: HEK293
Experimental: as §2

[9] = Table 15, read-out: Proliferation HMEC EC50
[10] = Table 15, read-out: Receptor Phosphorylation IR-A- EC50
[11] = Table 15, read-out: Receptor Phosphorylation IR-B EC50
[12] = read-out: EC50 values (in nM), phosphorylation at the insulin subtype B receptor, experiment of FIG. 18B

Half Life (hr) 20% Plasma/PBS: 2.1 h
Molecule: CC[C@H](C)[C@H](NC(=O)CN)C(=O)N[C@H](C(=O)N[C@@H](CC(=O)O)C(=O)N[C@@H](CCC(=O)O)C(=O)N[C@@H](C)C(=O)N[C@@H](C)C(=O)N[C@@H](Cc1ccccc1)C(=O)N[C@@H](CCCNC(=N)N)C(=O)N[C@@H](CO)C(=O)N[C@@H](C)C(=O)N[C@@H](CC(=O)O)C(=O)N[C@@H](CC(C)C)C(=O)N[C@@H](CCCNC(=N)N)C(=O)N[C@@H](CCCNC(=N)N)C(=O)N[C@@H](CC(C)C)C(=O)N[C@@H](CCC(=O)O)C(=O)N[C@@H](CCSC)C(=O)N[C@@H](Cc1ccc(NC(=O)[C@@H]2CCCN2C(=O)C(C)(C)N)cc1)C(=O)N[C@@H](C)C(=O)N[C@@H](C)C(N)=O)C(C)C [AiB Pro] (H-GIVDEAAFRSADLRRLEM[Phe(4-NH2)]([Pro-Aib])AA-NH2)

Half Life (hr) 20% Plasma/PBS: 2.2 h
Molecule: CC[C@H](C)[C@H](NC(=O)CN)C(=O)N[C@H](C(=O)N[C@@H](CC(=O)O)C(=O)N[C@@H](CCC(=O)O)C(=O)N[C@@H](C)C(=O)N[C@@H](C)C(=O)N[C@@H](Cc1ccccc1)C(=O)N[C@@H](CCCNC(=N)N)C(=O)N[C@@H](CO)C(=O)N[C@@H](C)C(=O)N[C@@H](CC(=O)O)C(=O)N[C@@H](CC(C)C)C(=O)N[C@@H](CCCNC(=N)N)C(=O)N[C@@H](CCCNC(=N)N)C(=O)N[C@@H](CC(C)C)C(=O)N[C@@H](CCC(=O)O)C(=O)N[C@@H](CCSC)C(=O)N[C@@H](Cc1ccc(NC(=O)[C@H]2CCCN2C(=O)C(C)(C)N)cc1)C(=O)N[C@@H](C)C(=O)N[C@@H](C)C(N)=O)C(C)C [AiB dPro] (H-GIVDEAAFRSADLRRLEM[Phe(4-NH2)]([dP-Aib])AA-NH2)

IGF-1 Receptor % IGF-1 (in test) (IGF-1 receptor [1]; Table 9): 6.8% and 5.0% | Ratio (insulin receptor [2]; IGF-1 receptor IC50 over insulin receptor IC50): 11.9 | Insulin Receptor % insulin (in test) (insulin receptor [2]; Table 9): 58.7% and 98.8% | Insulin Receptor % native insulin activity (0.6 nM) (insulin receptor [2]; Table 9): 90.9% and 117.6% | IGF-1 Receptor % IGF (IGF-1 receptor [3]; Table 10): 13% | Insulin Receptor % Insulin (insulin receptor [4]): 49.2%
Molecule: CC[C@H](C)[C@H](NC(=O)CN)C(=O)N[C@H](C(=O)N[C@@H](CC(=O)O)C(=O)N[C@@H](CCC(=O)O)C(=O)N[C@H]1CSSC[C@@H]2NC(=O)[C@H](CO)NC(=O)[C@H](CCCNC(=N)N)NC(=O)[C@H](Cc3ccccc3)NC(=O)[C@H](CSSC[C@H](NC(=O)[C@H](CC(C)C)NC(=O)[C@@H](NC(=O)[C@H](CCC(=O)O)NC(=O)[C@@H]3CCCN3C(=O)CN)[C@@H](C)O)C(=O)NCC(=O)N[C@@H](C)C(=O)N[C@@H](CCC(=O)O)C(=O)N[C@@H](CC(C)C)C(=O)N[C@@H](C(C)C)C(=O)N[C@@H](CC(=O)O)C(=O)N[C@@H](C)C(=O)N[C@@H](CC(C)C)C(=O)N[C@@H](Cc3ccc(O)cc3)C(=O)N[C@@H](CC(C)C)C(=O)N[C@@H](C(C)C)C(=O)N[C@H](C(=O)NCC(=O)N[C@@H](CC(=O)O)C(=O)N[C@@H](CCCNC(=N)N)C(=O)NCC(=O)N[C@@H](Cc3ccccc3)C(=O)N[C@@H](Cc3ccc(O)cc3)C(=O)N[C@@H](Cc3ccccc3)C(=O)N[C@@H](CC(N)=O)C(=O)N[C@@H](CCCCN)C(=O)N3CCC[C@H]3C(=O)N[C@H](C(N)=O)[C@@H](C)O)CSSC[C@@H](C(=O)N[C@@H](C)C(N)=O)NC(=O)[C@H](Cc3ccc(O)cc3)NC(=O)[C@H](CCSC)NC(=O)[C@H](CCC(=O)O)NC(=O)[C@H](CC(C)C)NC(=O)[C@H](CCCNC(=N)N)NC(=O)[C@H](CCCNC(=N)N)NC(=O)[C@H](CC(C)C)NC(=O)[C@H](CC(=O)O)NC2=O)NC1=O)C(C)C [IGF-1 A:B(E10Y16L17)]

Half Life (hr) 20% Plasma/PBS: 5.9 h
Molecule: CC[C@H](C)[C@H](NC(=O)CN)C(=O)N[C@H](C(=O)N[C@@H](CC(=O)O)C(=O)N[C@@H](CCC(=O)O)C(=O)N[C@@H](C)C(=O)N[C@@H](C)C(=O)N[C@@H](Cc1ccccc1)C(=O)N[C@@H](CCCNC(=N)N)C(=O)N[C@@H](CO)C(=O)N[C@@H](C)C(=O)N[C@@H](CC(=O)O)C(=O)N[C@@H](CC(C)C)C(=O)N[C@@H](CCCNC(=N)N)C(=O)N[C@@H](CCCNC(=N)N)C(=O)N[C@@H](CC(C)C)C(=O)N[C@@H](CCC(=O)O)C(=O)N[C@@H](CCSC)C(=O)N[C@@H](Cc1ccc(NC(=O)CN(C)C(=O)[C@@H](N)CCCCN)cc1)C(=O)N[C@@H](C)C(=O)N[C@@H](C)C(N)=O)C(C)C [K Sar] (H-GIVDEAAFRSADLRRLEM[Phe(4-NH2)]([Sar-Lys])AA-NH2)

% Insulin Activity IR-B (IR-B): 17.4% | % Insulin Activity IR-A (IR-A): 61.4%
Molecule: B^1(H5, H10, Y16, L17)25-C^1-A^1 (H8, N18, N21) (GPEHLCGAHLVDALYLVCGDRGFYGYGSSSRRAPQTGIVDECCHRSCDLRRLENYCN) [MIU-35]

% Insulin Activity IR-B (IR-B): 0.5% | % Insulin Activity IR-A (IR-A): 1.0%
Molecule: B^1(H5,Y16,L17)25-C^1(K8)-A^1(K14, N18,21) (GPEHLCGAELVDALYLVCGDRGFYGYGSSSRKAPQTGIVDECCFRSCDLKRLENYCN) [MIU-69, two 10K PEG chains, at the N-terminus and at amino acid A14]

% Insulin Activity IR-A (IR-A): 0.2%
Molecule: B^1(H5,Y16,L17)25-C^1(K8)-A^1(N18,21) (GPEHLCGAELVDALYLVCGDRGFYGYGSSSRKAPQTGIVDECCFRSCDLRRLENYCN) [MIU-67, two 10K PEG chains, at the N-terminus and at position C8 of the linking moiety]

% Insulin Activity IR-B (IR-B): 1.1% | % Insulin Activity IR-A (IR-A): 3.1%
Molecule: B^1(H5,Y16,L17)25-C^1-A^1(N18,21) (GPEHLCGAELVDALYLVCGDRGFYGYGSSSRRAPQTGIVDECCFRSCDLRRLENYCN) [MIU-57, single chain analog with 20 kDa PEG linked to the N-terminus of the B chain]

% Insulin Activity IR-A (IR-A): 0.4%
Molecule: B^1(H5,Y16,L17, K22)25-C^1(K8)-A^1(N18,21) (GPEHLCGAELVDALYLVCGDKGFYGYGSSSRKAPQTGIVDECCFRSCDLRRLENYCN) [MIU-68, two 10K PEG chains, at the N-terminus and at amino acid B22]

Molecule: Insulin: native human insulin, 51 amino acid heteroduplex of A chain SEQ ID NO: 1 and B chain SEQ ID NO: 2 [reference compound]
EC50 [5, 9]: 23.4 nM | EC50 ([5]; average measured potency at 24, 48, 72 and 96 hours, read-out: EC50): 6.16 nM

Molecule: MIU-58: dimer of two single chain analogs B1(H5,Y16,L17)25-C1-A1(N18,21) linked head to head via 20 kDa PEG (GPEHLCGAELVDALYLVCGDRGFYGYGSSSRRAPQTGIVDECCFRSCDLRRLENYCN; disulfide 18-56, 42-47, 6-43; also: dimer of two chains joined head to head (B1 N-termini) via 20 kDa PEG)
% Insulin Activity IR-B (IR-B): 5.8% | blood glucose lowering in insulin tolerance test (result in words) (blood glucose): less potent than the parent compound, but is still active | % Insulin Activity IR-A (IR-A): 19.7%

EC50 (IGF-1 receptor [1]): 438 nM | EC50 [6]: 16.4 nM | EC50 (IGF-1 receptor [3]): 269 nM | EC50 [7, 10]: 1.25 nM | EC50 ([7]; read-out: EC50 values (in nM), phosphorylation at the insulin subtype A receptor, experiment of FIG. 18A): 0.97 ± 0.17 nM | EC50 [8, 11]: 11.3 nM | EC50 [8, 12]: 18.3 ± 10.3 nM
B1: DP22: CTP-E5R-B chain-CTP(K)-A Chain (SEQ ID NO: 91) (protein)
chain: MGSSSSKAPPPSLPSPSRLPGPSDTPILPQEEEEERGPEHLCGAHLVDALYLVCGDRGFYSSSSRAPPPSLPSPSRLPGPSDTPILPQKGIVDECCHRSCDLRRLENYCN
modifications: single chain insulin analog
EC50 [5, 9]: 431 nM

EC50 (IGF-1 receptor [1]): 216 nM | EC50 (IGF-1 receptor [3]): 26.7 nM | EC50 [7, 10]: 0.985 nM | EC50 [8, 11]: 4.34 nM
B2: … AHLVDALYLVCGDRGFYGYGSSSRRAPQTGIVDECCHRSCDLRRLENYCN (protein, listed as Homo sapiens)
chain: MGSSSSKAPPPSLPSPSRLPGPSDTPILPQEEEEEKGPEHLCGAHLVDALYLVCGDRGFYGYGSSSRRAPQTGIVDECCHRSCDLRRLENYCN
blood glucose lowering in insulin tolerance test (result in words) (blood glucose): potent insulin receptor agonists

EC50 (IGF-1 receptor [1]): 50 nM | EC50 (IGF-1 receptor [3]): 13.3 nM | in vitro phosphorylation activity at the insulin subtype A receptor (result in words) ([7]; FIGS. 21, 23): potency similar to native insulin | EC50 [8, 11]: 1.33 nM | EC50 [8, 12]: 2.44 ± 1.3 nM
B3: DP20LysC: DP20 cleaved at the lysine of CTP to produce a two chain insulin (protein)
chain 1: GPEHLCGAHLVDALYLVCGDRGFYSSSSRAPPPSLPSPSRLPGPSDTPILPQK
chain 2: GIVDECCHRSCDLRRLENYCN
EC50 [5, 9]: 8.19 nM
